Common to all, as to format: cell-based
Experiment [1] has as its system HEK293T cells. As to the kind of experiment: cAMP production by Olfr609-derived receptors expressed in HEK293T cells, vanillic acid as agonist (Experiment 4). The procedure:
(§1) Subsequently, the HEK293T cells were transfected with the above-mentioned three plasmids by a lipofection method. The HEK293T cells were incubated for 48 hours, and the β1AR consisting of the protein represented by SEQ ID NO: 03 was expressed on the cell membrane of the HEK293T cell.
(§2) The abbreviation “IBMX” means 3-isobutyl-1-methylxanthine. The IBMX is one of the phosphodiesterase inhibitors. The IBMX stabilizes cAMP, which is unstable.
The expression was conducted similarly to that of the step 2 of the reference example 1 except that the plasmid (Rho-myc-Olfr609) was used instead of the plasmid (β1AR). In this way, the Rho-myc-Olfr609 (SEQ ID NO: 64) was expressed on a cell membrane.
Instead of the eugenol aqueous solutions, the concentrations of the cAMP were measured similarly to the step 3 of the comparative example 1-1 except that vanillic acid aqueous solutions having concentrations of 0.30 μM, 1 μM, 3 μM, 10 μM, and 30 μM were used as agonists.
The expression was conducted similarly to that of the step 2 of the reference example 1 except that the plasmid (chimeraOlfr609) was used instead of the plasmid (β1AR). In this way, the chimeraOlfr609 (SEQ ID NO: 69) was expressed on a cell membrane.
The concentrations of the cAMP were measured similarly to the step 3 of the comparative example 4-1.

Experiment [2] concerns HEK293T cells. As to the kind of experiment: cAMP production by Olfr168-derived receptors expressed in HEK293T cells, 2-pentanone as agonist (Experiment 2). The procedure:
as §1, §2
The expression was conducted similarly to that of the step 2 of the reference example 1 except that the plasmid (Rho-myc-Olfr168) was used instead of the plasmid (β1AR). In this way, the Rho-myc-Olfr168 (SEQ ID NO: 49) was expressed on a cell membrane.
The concentrations of the cAMP were measured similarly to the step 3 of the comparative example 1-1 except that 2-pentanone aqueous solutions having concentrations of 30 μM, 100 μM, 300 μM, 1000 μM, and 3000 μM were used as agonists instead of the eugenol aqueous solutions.
The expression was conducted similarly to that of the step 2 of the reference example 1 except that the plasmid (chimeraOlfr168) was used instead of the plasmid (β1AR). In this way, the chimeraOlfr168 (SEQ ID NO: 51) was expressed on a cell membrane.
The concentrations of the cAMP were measured similarly to the step 3 of the comparative example 2-1.

The test system of experiment [3] is HEK293T cells. As to the kind of experiment: cAMP production by Olfr15-derived receptors expressed in HEK293T cells, cyclohexanone as agonist (Experiment 3). The procedure:
as §1, §2
The expression was conducted similarly to that of the step 2 of the reference example 1 except that the plasmid (Rho-myc-Olfr15) was used instead of the plasmid (β1AR). In this way, the Rho-myc-Olfr15 (SEQ ID NO: 58) was expressed on a cell membrane.
Instead of the eugenol aqueous solutions, the concentrations of the cAMP were measured similarly to the step 3 of the comparative example 1-1 except that cyclohexanone aqueous solutions having concentrations of 30 μM, 100 μM, 300 μM, 1000 μM, and 3000 μM were used as agonists.
The expression was conducted similarly to that of the step 2 of the reference example 1 except that the plasmid (chimeraOlfr15) was used instead of the plasmid (β1AR). In this way, the chimeraOlfr15 (SEQ ID NO: 60) was expressed on a cell membrane.
The concentrations of the cAMP were measured similarly to the step 3 of the comparative example 3-1.

The values that follow come from US8822165B2, “Method for producing cAMP using chimeric olfactory receptor” (Panasonic Corporation, priority 2010, dated 2014).

B1: Rho-myc-Olfr609: Rho-tag, myc epitope tag and EC1-IC4 domains of the Olfr609, mouse olfactory receptor for vanillic acid (protein)
chain: MNGTEGPNFYVPFSNKTGVVEQKLISEEDLEFMSYSNHSSTSFFLTGLPGLETVYLWLSIPLCTMYIASLAGNGLILWVVKSEPSLHQPMYYFLSMLAVTDLGLSVSTLPTMLTIYMMGVSEVALDMCLAQLFFIHTFSIMESSVLLTMAFDRVVAISSPLHYATILTNPRVASLGMVILVRSIGLHIPAPIMLKKLPYCQKRHLSHSYCLHPDVMKLACTDTRINSAYGLFVVLSTLGVDSVLIVLSYGLILYTVLSIASKTERLKALNTCVSHICSVLLFYTPMIGLSMIHRFGKWASPCSRVLLSYLHFLTPPVLNPVVYTIKTKQIRQRIWRIFRCGGRSIGHIQGH
modifications: Rho-myc-olfr609
Take B1: the “concentration of the cAMP” value in experiment [1] (vanillic acid 0 μM) came to 0.014; in experiment [1] (vanillic acid 0.3 μM) it was 0.070; in experiment [1] (vanillic acid 1 μM), 0.076; in experiment [1] (vanillic acid 3 μM), 0.127; in experiment [1] (vanillic acid 10 μM) it was 0.067; in experiment [1] (vanillic acid 30 μM) it was 0.071.

B2: chimeraOlfr609: IC4 domain of the Rho-myc-Olfr609 substituted with that of the beta-1 adrenergic receptor (protein)
chain: MNGTEGPNFYVPFSNKTGVVEQKLISEEDLEFMSYSNHSSTSFFLTGLPGLETVYLWLSIPLCTMYIASLAGNGLILWVVKSEPSLHQPMYYFLSMLAVTDLGLSVSTLPTMLTIYMMGVSEVALDMCLAQLFFIHTFSIMESSVLLTMAFDRVVAISSPLHYATILTNPRVASLGMVILVRSIGLHIPAPIMLKKLPYCQKRHLSHSYCLHPDVMKLACTDTRINSAYGLFVVLSTLGVDSVLIVLSYGLILYTVLSIASKTERLKALNTCVSHICSVLLFYTPMIGLSMIHRFGKWASPCSRVLLSYLHFLTPPVLNPVVYTIKTKDFRKAFQRLLCCARRAACRRRAAHGDRPRASGCLARAGPPPSPGAPSDDDDDDAGATPPARLLEPWAGCNGGTTTVDSDSSLDEPGRQGFSSESKV
modifications: ChimeraOlfr 609
notes: IC4 domain of the Rho-myc-Olfr609 substituted with that of the beta-1 adrenergic receptor
For B2, the “concentration of the cAMP” value in experiment [1] (vanillic acid 0 μM) was 0.075; in experiment [1] (vanillic acid 0.3 μM), 0.166; in experiment [1] (vanillic acid 1 μM), 0.160; in experiment [1] (vanillic acid 3 μM), 0.192; in experiment [1] (vanillic acid 10 μM) it was 0.162; in experiment [1] (vanillic acid 30 μM), 0.187. Further, the “concentration of the cAMP compared with Rho-myc-Olfr609 (in words)” value in experiment [1] (vanillic acid, Table 8) is “much greater”.

B3: Rho-myc-Olfr168: Rho-tag, myc epitope tag and EC1-IC4 domains of the Olfr168, mouse olfactory receptor for 2-pentanone (protein)
chain: MNGTEGPNFYVPFSNKTGVVEQKLISEEDLEFMEKWNQSSSDFILLGLLPQNQTGLLLMMLIILVFFLALFGNSAMIHLIRVDPRLHTPMYFLLSQLSLMDLMYISTTVPKMAFNFLSGQKNISFLGCGVQSFFFLTMAGSEGLLLASMAYDRFVAICHPLHYPIRMSKIMCLKMIIGSWILGSINSLAHSIYALHIPYCHSRSINHFFCDVPAMLPLACMDTWVYEYMVFVSTSLFLLLPFLGITASYGRVLFAVFHMRSKEGKKKAFTTCSTHLTVVTFYYAPFVYTYLRPRSLRSPTEDKILTVFYTILTPMLNPIIYSLRNKEVLGAMTRVLGTFSSMKP
modifications: Rho-myc-olfr168
With B3, the “concentration of the cAMP” value is 0.0215 in experiment [2] (2-pentanone 0 μM); 0.0170 in experiment [2] (2-pentanone 30 μM); 0.0170 in experiment [2] (2-pentanone 100 μM); 0.0280 in experiment [2] (2-pentanone 300 μM); 0.0400 in experiment [2] (2-pentanone 1000 μM); 0.0444 in experiment [2] (2-pentanone 3000 μM).

B4: chimeraOlfr15: IC4 domain of the Rho-myc-Olfr15 substituted with that of the beta-1 adrenergic receptor (protein)
chain: MNGTEGPNFYVPFSNKTGVVEQKLISEEDLEFMEVDSNSSSGSFILMGVSDHPHLEIIFFAVILASYLLTLVGNLTIILLSRLDARLHTPMYFFLSNLSSLDLAFTTSSVPQMLKNLWGPDKTISYGGCVTQLYVFLWLGATECILLVVMAFDRYVAVCRPLHYMTVMNPRLCWGLAAISWLGGLGNSVIQSTFTLQLPFCGHRKVDNFLCEVPAMIKLACGDTSLNEAVLNGVCTFFTVVPVSVILVSYCFIAQAVMKIRSVEGRRKAFNTCVSHLVVVFLFYGSAIYGYLLPAKSSNQSQGKFISLFYSVVTPMVNPLIYTLRNKDFRKAFQRLLCCARRAACRRRAAHGDRPRASGCLARAGPPPSPGAPSDDDDDDAGATPPARLLEPWAGCNGGTTTVDSDSSLDEPGRQGFSSESKV
modifications: ChimeraOlfr15
notes: IC4 domain of the Rho-myc-Olfr15 substituted with that of the beta-1 adrenergic receptor
Turning to B4, the “concentration of the cAMP” value in experiment [3] (cyclohexanone 0 μM) came to 0.0282; in experiment [3] (cyclohexanone 30 μM) it was 0.0280; in experiment [3] (cyclohexanone 100 μM), 0.0250; in experiment [3] (cyclohexanone 1000 μM) it was 0.0290; in experiment [3] (cyclohexanone 3000 μM), 0.0916. In addition, the “concentration of the cAMP compared with Rho-myc-olfr15 (in words)” value in experiment [3] (cyclohexanone, Table 7) is given as “much greater”.

B5: Rho-myc-Olfr15: Rho-tag, myc epitope tag and EC1-IC4 domains of the Olfr15, mouse olfactory receptor for cyclohexanone (protein)
chain: MNGTEGPNFYVPFSNKTGVVEQKLISEEDLEFMEVDSNSSSGSFILMGVSDHPHLEIIFFAVILASYLLTLVGNLTIILLSRLDARLHTPMYFFLSNLSSLDLAFTTSSVPQMLKNLWGPDKTISYGGCVTQLYVFLWLGATECILLVVMAFDRYVAVCRPLHYMTVMNPRLCWGLAAISWLGGLGNSVIQSTFTLQLPFCGHRKVDNFLCEVPAMIKLACGDTSLNEAVLNGVCTFFTVVPVSVILVSYCFIAQAVMKIRSVEGRRKAFNTCVSHLVVVFLFYGSAIYGYLLPAKSSNQSQGKFISLFYSVVTPMVNPLIYTLRNKEVKGALGRLLGKGRGAS
modifications: Rho-myc-Olfr15
B5: the “concentration of the cAMP” value in experiment [3] (cyclohexanone 0 μM) was found to be 0.0173; in experiment [3] (cyclohexanone 30 μM) it was 0.0180; in experiment [3] (cyclohexanone 100 μM) it was 0.0210; in experiment [3] (cyclohexanone 1000 μM), 0.0280; in experiment [3] (cyclohexanone 3000 μM), 0.0444.

B6: chimeraOlfr168: Rho-myc-Olfr168 where the IC4 domain was substituted with that of the beta-1 adrenergic receptor (protein)
chain: MNGTEGPNFYVPFSNKTGVVEQKLISEEDLEFMEKWNQSSSDFILLGLLPQNQTGLLLMMLIILVFFLALFGNSAMIHLIRVDPRLHTPMYFLLSQLSLMDLMYISTTVPKMAFNFLSGQKNISFLGCGVQSFFFLTMAGSEGLLLASMAYDRFVAICHPLHYPIRMSKIMCLKMIIGSWILGSINSLAHSIYALHIPYCHSRSINHFFCDVPAMLPLACMDTWVYEYMVFVSTSLFLLLPFLGITASYGRVLFAVFHMRSKEGKKKAFTTCSTHLTVVTFYYAPFVYTYLRPRSLRSPTEDKILTVFYTILTPMLNPIIYSLRNKDFRKAFQRLLCCARRAACRRRAAHGDRPRASGCLARAGPPPSPGAPSDDDDDDAGATPPARLLEPWAGCNGGTTTVDSDSSLDEPGRQGFSSESKV
modifications: ChimeraOlfr168
notes: Rho-myc-Olfr168 where the IC4 domain was substituted with that of the beta-1 adrenergic receptor
For the molecule B6, the “concentration of the cAMP” value in experiment [2] (2-pentanone 0 μM) turned out to be 0.0187; in experiment [2] (2-pentanone 30 μM), 0.0220; in experiment [2] (2-pentanone 100 μM) it was 0.0270; in experiment [2] (2-pentanone 300 μM), 0.0520; in experiment [2] (2-pentanone 1000 μM) it was 0.0775; in experiment [2] (2-pentanone 3000 μM), 0.0916. The “concentration of the cAMP compared with Rho-myc-Olfr168 (in words)” value in experiment [2] (2-pentanone, Table 6) is “much greater”.
